Source: US20230038638A1, “COMPLEMENT FACTOR I-RELATED COMPOSITIONS AND METHODS” (published 2023)
Residue numbers refer to the chain shown, from its start.

What was measured:
human C4b (human) [1] = target: T1, human C4b (human) (UniProt P0C0L5)
T1 sequence: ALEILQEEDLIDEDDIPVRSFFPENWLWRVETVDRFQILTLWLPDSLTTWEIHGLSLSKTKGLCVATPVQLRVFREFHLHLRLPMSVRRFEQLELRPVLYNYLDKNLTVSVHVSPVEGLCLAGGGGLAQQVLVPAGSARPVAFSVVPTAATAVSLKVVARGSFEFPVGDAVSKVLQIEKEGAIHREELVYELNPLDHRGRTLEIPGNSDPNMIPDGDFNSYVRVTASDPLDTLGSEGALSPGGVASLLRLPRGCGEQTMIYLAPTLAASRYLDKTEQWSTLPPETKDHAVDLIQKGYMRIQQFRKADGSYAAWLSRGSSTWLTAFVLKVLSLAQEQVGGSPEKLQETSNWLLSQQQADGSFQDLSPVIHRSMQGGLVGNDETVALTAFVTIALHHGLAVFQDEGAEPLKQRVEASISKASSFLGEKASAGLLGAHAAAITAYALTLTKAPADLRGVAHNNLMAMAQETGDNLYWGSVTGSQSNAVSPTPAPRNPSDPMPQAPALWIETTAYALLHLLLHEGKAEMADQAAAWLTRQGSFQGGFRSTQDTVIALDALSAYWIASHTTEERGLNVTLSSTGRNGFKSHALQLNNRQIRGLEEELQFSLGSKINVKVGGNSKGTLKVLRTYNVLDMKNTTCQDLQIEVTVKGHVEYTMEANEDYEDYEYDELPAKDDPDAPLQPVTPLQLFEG

[2] = target: soluble human C3b (human) (UniProt P01024)
human C4b (human) [3] = target: T2, human C4b (human) (UniProt P0C0L4)
T2 sequence: T1 sequence with T151A, G317D, L364P, S365C, I368L, H369D, S420N, A451V, R454L, A530S

Row | C4b Screen Ref Fold (fold of CFI-HSA wild type) (human C4b (human) [1]) | iC3b Screen Ref Fold (fold of CFI-HSA wild type) [2] | C4c EC50 (human C4b (human) [3]) [nM] | C4c EC50 (nM) (human C4b (human) [3]) | Substance | further results
1 |  |  |  | 44.1 | CFI-HSA variant N531G; E457G; E461Q; F464Y (enzyme) | C4b Screen Ref Fold (fold vs CFI-HSA wild type) (human C4b (human) [1]): 6.8; iC3b Screen Ref Fold (fold vs CFI-HSA wild type) [2]: 0.27
2 | 0.43 | 2.26 |  | 221 | CFI-HSA variant Y408L; D425R; E416A (enzyme) | 
3 | 4.13 | 0.52 | 85.5 | 166 | CFI-HSA variant Y553H (enzyme) | 
4 |  |  |  | 37.9 | CFI-HSA variant E457G; N531G; E461Q; R462K; F464Y (enzyme) | C4b Screen Ref Fold (fold vs CFI-HSA wild type) (human C4b (human) [1]): 5.97; iC3b Screen Ref Fold (fold vs CFI-HSA wild type) [2]: 0.83
5 |  |  |  | 470 | CFI-HSA variant E530D-N531G; G533A-K534Q-P535K-E536N (enzyme) | C4b Screen Ref Fold (fold vs CFI-HSA wild type) (human C4b (human) [1]): 1.4; iC3b Screen Ref Fold (fold vs CFI-HSA wild type) [2]: 1.63
6 | 2.57 | 0.37 | 207 |  | CFI-HSA variant S552G; Y553H; V565I (enzyme) | 
7 |  |  |  | 94.4 | CFI-HSA variant Y408L; N531G; E457G (enzyme) | C4b Screen Ref Fold (fold vs CFI-HSA wild type) (human C4b (human) [1]): 6.16; iC3b Screen Ref Fold (fold vs CFI-HSA wild type) [2]: 0.63
8 |  |  |  | 79.9 | CFI-HSA variant Y408L; N531G; E457G; E461Q; F464Y (enzyme) | C4b Screen Ref Fold (fold vs CFI-HSA wild type) (human C4b (human) [1]): 6.12; iC3b Screen Ref Fold (fold vs CFI-HSA wild type) [2]: 0.51
9 | 3.64 | 1.77 | 59.7 |  | CFI-HSA variant Y408L; E457G; N531G; P535G; N422K (enzyme) | 
10 |  |  |  | 75.7 | CFI-HSA variant Y408F; N531G (enzyme) | C4b Screen Ref Fold (fold vs CFI-HSA wild type) (human C4b (human) [1]): 5.78; iC3b Screen Ref Fold (fold vs CFI-HSA wild type) [2]: 1.24
11 | 5.02 | 2.66 |  | 5.4 | CFI-HSA variant E457G; N531G; E416A (enzyme) | 
12 | 5.24 | 0.97 | 83.8 |  | CFI-HSA variant Y408L; E457G; K534Q (enzyme) | 
13 | 2.04 | 0.44 | 139 |  | CFI-HSA variant S552G; Y553H; P558S (enzyme) | 
14 |  |  |  | 900 | CFI-HSA variant Y408L; D425R; E530Y (enzyme) | 
15 |  |  | 329 |  | CFI-HSA variant T407G (enzyme) | 
16 |  |  |  | 92.9 | CFI-HSA variant Y408L; E457G; N531G; D425R; E530Y (enzyme) | 
17 |  |  | 66.5 |  | CFI-HSA variant Y408L; N531G; F464Y (enzyme) | 
18 |  |  | 52.7 |  | CFI-HSA variant E457G; R462K (enzyme) | 
19 |  |  | 156 |  | CFI-HSA variant Y408L; E457G; R462K; F464Y (enzyme) | 
20 |  |  | 40.3 |  | CFI-HSA variant E457G; E461Q; F464Y (enzyme) | 
21 |  |  | 24.5 |  | CFI-HSA variant Y408L; N531G; E461Q; R462K (enzyme) | 
22 |  |  | 620 |  | CFI-HSA variant T407G; N531G (enzyme) | 
23 |  |  |  | > 1000 | CFI-HSA variant Y408L; E530Y (enzyme) | 
24 |  |  | 98.2 |  | CFI-HSA variant Y408L; N531G; R462K; F464Y (enzyme) | 

The remaining lines, values behind:

Row | Substance | C4b Screen Ref Fold (fold of CFI-HSA wild type) (human C4b (human) [1]) | iC3b Screen Ref Fold (fold of CFI-HSA wild type) [2] | C4c EC50 (human C4b (human) [3]) [nM] | C4c EC50 (nM) (human C4b (human) [3]) | further results
25 | CFI-HSA variant K488E (enzyme) | 0.78 | 1.07 | > 1000 |  | 
26 | CFI-HSA variant Y20F; E38A; S250A; D425A; Y408L; N531G; E457G; E461Q; R462K; F464Y (enzyme) |  |  |  | 106 | C4b Screen Ref Fold (fold vs CFI-HSA wild type) (human C4b (human) [1]): 6.31; iC3b Screen Ref Fold (fold vs CFI-HSA wild type) [2]: 0.77
27 | CFI-HSA variant Y553H; P558S (enzyme) | 2.14 | 0.63 | 122 |  | 
28 | CFI-HSA variant S552G; Y553H; F559L (enzyme) | 2.42 | 0.23 | 224 |  | 
29 | CFI-HSA variant Y408L; E457G; P558S (enzyme) | 4.59 | 0.97 | 67.3 |  | 
30 | CFI-HSA variant E487A (enzyme) | 1.47 | 1.38 | 104 |  | 
31 | CFI-HSA variant S552G; Y553H; V565I; P558S (enzyme) | 3.5 | 0.66 | 108 |  | 
32 | CFI-HSA variant Y408L; E457G; N531G; P558S (enzyme) | 5.27 | 0.86 | 26.6 |  | 
33 | CFI-HSA variant Y408L; E457G; N531G; P535G; D425K (enzyme) | 5.01 | 1.12 | 32.2 |  | 
34 | CFI-HSA variant E457G; N531G; P535G; D425K (enzyme) | 5.2 | 1.3 | 39.4 |  | 
35 | CFI-HSA variant Y408L; N531G; E461Q; R462K; F464Y (enzyme) |  |  |  | 82.7 | C4b Screen Ref Fold (fold vs CFI-HSA wild type) (human C4b (human) [1]): 5.97; iC3b Screen Ref Fold (fold vs CFI-HSA wild type) [2]: 0.92
36 | CFI-HSA variant Y408L; N531G; N422K (enzyme) | 3.78 | 1.94 | 83.7 |  | 
37 | CFI-HSA variant E457G; E461Q-R462K; F464Y (enzyme) |  |  |  | 65.2 | C4b Screen Ref Fold (fold vs CFI-HSA wild type) (human C4b (human) [1]): 5.5; iC3b Screen Ref Fold (fold vs CFI-HSA wild type) [2]: 0.69
38 | CFI-HSA variant Y408L; E457G; R462K; F464Y; N531G; GGSSGG (SEQ ID NO: 6); CR1 (ccp15-17) (from UniProt P17927) (enzyme) |  |  |  | 76.4 | 
39 | CFI-HSA variant T407G; Y408L; E457G (enzyme) |  |  | 300 |  | 
40 | CFI-HSA variant T407G; E457G (enzyme) |  |  | 545 |  | 

Row | Substance | C4b Screen Ref Fold (fold of CFI-HSA wild type) (human C4b (human) [1]) | iC3b Screen Ref Fold (fold of CFI-HSA wild type) [2] | C4c EC50 (human C4b (human) [3]) [nM] | C4c EC50 (nM) (human C4b (human) [3]) | further results
41 | CFI-HSA variant Y408L; E461Q; F464Y (enzyme) |  |  | 105 |  | 
42 | CFI-HSA variant E457G; N531G; E461Q; R462K; F464Y; GGSSGG (SEQ ID NO: 6); CR1 (ccp1-3) (from UniProt P17927) (enzyme) |  |  |  | > 1000 | 
43 | CFI-HSA variant F464A (enzyme) |  |  | > 1000 |  | 
44 | CFI-HSA variant N531G; E457G; R462K; F464Y (enzyme) |  |  | 33 |  | 
45 | CFI-HSA variant Y408L; N531G; R462K (enzyme) |  |  | 126 |  | 
46 | CFI-HSA variant T407G; Y408L (enzyme) |  |  | 435 |  | 
47 | CFI-HSA variant E457G; N531G; E461Q; R462K; F464Y; E530Y; GGSSGG (SEQ ID NO: 6); CR1(ccp15-17) (from UniProt P17927) (enzyme) |  |  |  | 86.7 | 
48 | CFI-HSA variant Y408L; E457G; E530Y (enzyme) |  |  |  | 26.5 | 
49 | CFI-HSA variant Y408L; N531G; E461Q; F464Y (enzyme) |  |  | 46.7 |  | 
50 | CFI-HSA variant E457G; E461Q; F464Y; N531G; GGSSGG (SEQ ID NO: 6); CR1 (ccp15-17) (from UniProt P17927) (enzyme) |  |  |  | 38.4 | 
51 | CFI-HSA variant E457G; P535G; WT; GGSSGG (SEQ ID NO: 6); CR1(ccp15-17) (enzyme) |  |  | 57.5 |  | 
52 | CFI-HSA variant Y408L; N531G; D425R; E530Y (enzyme) |  |  |  | 41.2 | 
53 | CFI-HSA variant F464I (enzyme) |  |  | > 1000 |  | 
54 | CFI-HSA variant E457G; E530Y (enzyme) |  |  |  | 332 | 
55 | CFI-HSA variant Y408L; N531G; E530Y (enzyme) |  |  |  | 54 | 
56 | CFI-HSA variant Y408L; E457G; N531G; WT; GGSSGG (SEQ ID NO: 6); CR1(ccp15-17) (enzyme) |  |  | 113 |  | 
